Publication PMC10693595 (2023)

Biological target: VZV glycoprotein B H527P on extracellular vesicles (varicella-zoster virus (VZV)) (UniProt P09257)
Test: cryo-EM structure; cryo-electron tomography with subtomogram averaging (EMAN2) of gB[H527P] in the membranes of extracellular vesicles from BHK-21 cells; C3 symmetry applied; two classes by focused classification

VZV glycoprotein B H527P on extracellular vesicles (from UniProt P09257 72-931) (natural protein)
stoichiometry N: 3
